According to patent publication US20080241152A1 (VEGENICS, published 2008):

Legend:
[1] = target: the molecule itself; experiment: chemical crosslinking, SDS-PAGE (homodimer)
[2] = target: T1, KDR (VEGFR-2) expressed on porcine aortic endothelial (PAE) cells (UniProt P35968 20-1356, limits assumed); experiment: Scatchard analysis (125I-labelled ligand; receptor format not given, PAE/VEGFR-2 cells in the same example)
T1 construct: whole, on cells; KDR is the name of the human receptor; also called KDR/Flk-1; PAE-KDR cells
Description: To study receptor binding, PAE/VEGFR-2 and PAE/VEGFR-3 cells were seeded into 24-well tissue culture plates (Nunclon), which had been coated with 2% gelatin in PBS. […] The binding was allowed to proceed at room temperature for 90 minutes. The plates were then transferred onto ice and washed three times with ice-cold PBS containing 0.1% BSA. The cells were then lysed in 1 M NaOH, the lysates were collected, and the radioactivity was measured using a γ-counter.

T1 sequence (P35968 20-1356 limits assumed): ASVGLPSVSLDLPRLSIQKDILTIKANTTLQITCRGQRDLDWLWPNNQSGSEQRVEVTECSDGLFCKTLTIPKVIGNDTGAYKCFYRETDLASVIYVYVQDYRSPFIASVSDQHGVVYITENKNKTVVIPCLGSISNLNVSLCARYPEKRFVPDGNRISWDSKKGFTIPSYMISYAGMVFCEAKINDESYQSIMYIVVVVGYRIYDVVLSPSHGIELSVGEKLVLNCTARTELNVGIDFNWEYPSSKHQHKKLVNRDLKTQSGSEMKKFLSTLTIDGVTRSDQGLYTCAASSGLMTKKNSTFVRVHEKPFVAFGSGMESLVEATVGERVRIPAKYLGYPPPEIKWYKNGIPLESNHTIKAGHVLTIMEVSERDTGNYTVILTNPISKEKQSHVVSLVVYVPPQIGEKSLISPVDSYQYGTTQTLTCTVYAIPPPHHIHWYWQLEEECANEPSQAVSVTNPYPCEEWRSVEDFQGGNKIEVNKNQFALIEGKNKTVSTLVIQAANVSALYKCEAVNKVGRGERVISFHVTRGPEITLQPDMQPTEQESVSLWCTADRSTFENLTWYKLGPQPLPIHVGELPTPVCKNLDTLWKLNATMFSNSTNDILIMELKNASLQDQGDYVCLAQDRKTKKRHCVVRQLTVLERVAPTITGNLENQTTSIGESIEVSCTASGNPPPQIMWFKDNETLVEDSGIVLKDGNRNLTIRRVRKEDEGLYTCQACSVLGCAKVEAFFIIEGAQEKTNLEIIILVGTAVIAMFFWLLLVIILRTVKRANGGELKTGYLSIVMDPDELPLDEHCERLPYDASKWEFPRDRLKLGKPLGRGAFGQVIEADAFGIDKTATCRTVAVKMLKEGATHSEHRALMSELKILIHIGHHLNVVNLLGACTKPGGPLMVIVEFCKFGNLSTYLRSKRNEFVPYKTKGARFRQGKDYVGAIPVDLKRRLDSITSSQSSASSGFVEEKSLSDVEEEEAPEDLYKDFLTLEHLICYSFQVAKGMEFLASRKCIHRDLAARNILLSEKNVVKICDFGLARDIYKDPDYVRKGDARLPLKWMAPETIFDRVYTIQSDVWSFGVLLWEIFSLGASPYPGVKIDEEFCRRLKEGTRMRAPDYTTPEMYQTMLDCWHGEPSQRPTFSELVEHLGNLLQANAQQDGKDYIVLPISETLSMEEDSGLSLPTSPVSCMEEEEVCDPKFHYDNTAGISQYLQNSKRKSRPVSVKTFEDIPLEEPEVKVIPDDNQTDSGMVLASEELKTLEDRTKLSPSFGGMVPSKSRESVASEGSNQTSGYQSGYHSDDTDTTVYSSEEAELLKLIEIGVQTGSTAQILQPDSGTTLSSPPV

B1: VEGF-C ΔNΔCHis (ligand)
chain: TEETIKFAAAHYNTEILKSIDNEWRKTQCMPREVCIDVGKEFGVATNTFFKPPCVSVYRCGGCCNSEGLQCMNTSTSYLSKTLFEITVPLSQGPKPVTISFANHTSCRCMSKLDVYRQVHSIIHHHHHH
modifications: 125I label in the tracer used for Scatchard and competition assays
notes: also called VEGF-C ΔCΔNHis; recombinantly-matured VEGF-C
binding result [1]: binds
Kd [2]: 0.41 nM
